The results in this text go back to publication PMC7184779.

This experiment concerns the target SADS-CoV papain-like protease 2 (PLP2) domain of nsp3, wild type (SADS-CoV).

“ubiquitin-AMC (from UniProt P0CG48 1-76) (natural protein)”: the kcat/Km of hydrolysis of Ub-AMC (AMC fluorescence, Michaelis-Menten fit) is 3.76 µM⁻¹ min⁻¹.
